Experiment [1] concerns the target HIV-1IIIB gp120/gp41 stably expressed on CHO cells (HIV-1 IIIB). The experiment in a line: cell-based or functional assay.
Experiment [2] has as its target recombinant HIV-1 gp120 from the laboratory-adapted strain HIV-1LAI (HIV-1 LAI) (UniProt P03377). The experiment is described as follows: modified ELISA, gp120 captured on plate, 50% maximal binding.
The target of experiment [3] is recombinant HIV-1 gp120 from the primary isolate HIV-1JR-FL (HIV-1 JR-FL) (UniProt P20871). The experiment is described as above.

“And” between values parts separate entries of the source, which are not always exact repeats. Equal values may be shown once.

What is called EC50 is the midpoint of the concentration-response curve. For the substance “CD4-IgG2 chimeric heterotetramer (Fc fusion)”, in experiment [1], the IC50 of syncytium inhibition (CHO cells expressing HIV-1IIIB gp120/gp41 with C8166 cells) was 9 nM and 1.81 µg/ml; the Relative Potency (mass), relative to sCD4, syncytium inhibition came to 5.1 fold; the Relative Potency (molarity), relative to sCD4, syncytium inhibition stood at 22.2 fold. The EC50 in experiment [2] was 1.25 nM. In experiment [3], the EC50 was 0.64 nM.
